Assay results reported in patent US8258099B2, “Pin1-modulating compounds and methods of use thereof” (Max-Planck-Gesellschaft zur Foerderung der Wissenschaften …, priority 2004, dated 2012).
Square brackets hold non-standard residues; d marks the D form. Peptide text beside a SMILES is read from it. * marks the point of attachment. Biotin = O=C1N[C@H]2[C@H](CS[C@H]2CCCCC(=O)*)N1; Phe(4-tBu) = CC(C)(C)c1ccc(C[C@H](N)C(=O)O)cc1; Bip = N[C@@H](Cc1ccc(-c2ccccc2)cc1)C(=O)O; pT = C[C@@H](OP(=O)(O)O)[C@H](N)C(=O)O; 2Nal = N[C@@H](Cc1ccc2ccccc2c1)C(=O)O; Bta = N[C@@H](Cc1csc2ccccc12)C(=O)O; Tic = O=C(O)[C@@H]1Cc2ccccc2CN1; 2Thi = N[C@@H](Cc1cccs1)C(=O)O; Cha = N[C@@H](CC1CCCCC1)C(=O)O; Tle = CC(C)(C)[C@H](N)C(=O)O; NMeA = CN[C@@H](C)C(=O)O

Key:
hPin1 = target: T1, hPin1 (Homo sapiens, UniProt Q13526); assay: Protease free PPIase assay, hPin1; assay type: biochemical; conditions: for IC50: blockade of PPIase activity of full-length hPin1, protease free assay, 10° C., read-out: IC50
T1 construct: The protease free assay ensures reliable measurement of IC50 values for the full-length hPin1
Description: Protein concentrations were determined using the extinction coefficient ε280=21030 M^−1 cm^−1 for hPin1, ε280=6979 M^−1 cm^−1 for the hPin1 PPIase domain, ε280=21030 M^−1 cm^−1 for XlPin1, ε280=8250 M^−1 cm^−1 for hPar14 and ε280=8250 M^−1 cm^−1 for hCyp18. Extinction coefficients were calculated using the program ProtParam Tool at ExPASy (SIB, Switzerland). All measurements were done at 10° C. in 35 mM Hepes buffer (pH 7.8).
The determination of the kinetic constants of the cis/trans isomerization within the protease-free system was performed using fluorescence based measurements (Garcia-Echeverria et al., 1993, Zhang et al., 2002) on a Hitachi F-3010 fluorescence spectrophotometer with H-Abz-Ala-Glu-Pro-Phe-NH-Np (SEQ ID NO: 2) as substrate. The substrate stock solution was 12 mM in anhydrous trifluoroethanol/0.55 M LiCl. Measurements were initiated by addition of the substrate (final concentration 10 μM) to a pre-incubated (15 min) mixture of 8.8 nM hPin1 or 7.1 nM XlPin1 and respective inhibitory peptide of desired concentrations. The excitation wavelength was 320 nm (spectral bandwidth 3 nm) and emission was detected at 420 nm (spectral bandwidth 10 nm).
Data analysis was performed by single-exponential nonlinear regression using the SigmaPlot Scientific Graphing System Version 5.00 (Jandel Corp.). The apparent first order rate constant kobs was computed by nonlinear regression of the progress curve obtained for the respective measurement. The rate constant k0 was determined in the absence of Pin1. The first order rate constants kenz was calculated from the equation kenz=kobs−k0. IC50 and Ki values were determined by fitting the first order rate constants kenz against the concentration of the inhibitory peptide by nonlinear regression according to Schutkowski et al., 1995 or a model for tight binding inhibitors (Morrison, 1969).
The protease free assay ensures reliable measurement of IC50 values for the full-length hPin1.

full-length hPin1 = full-length hPin1 (human, UniProt Q13526 1-163); assay: cell-based or functional assay
full-length hPin1, sequence (Q13526 whole entry): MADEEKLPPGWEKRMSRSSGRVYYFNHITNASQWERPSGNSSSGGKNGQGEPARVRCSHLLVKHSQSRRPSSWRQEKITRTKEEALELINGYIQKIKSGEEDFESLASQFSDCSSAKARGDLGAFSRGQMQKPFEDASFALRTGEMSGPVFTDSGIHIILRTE

T1 sequence (Q13526 whole entry): as above

`CC(=O)N[C@@H](CCCCNC(=O)CCCC[C@@H]1SC[C@@H]2NC(=O)N[C@@H]21)C(=O)N[C@@H](C)C(=O)N[C@@H](C)C(=O)N[C@@H](Cc1csc2ccccc12)C(=O)N[C@H](C(=O)N1CCC[C@H]1C(=O)N[C@@H](Cc1ccc2ccccc2c1)C(=O)N[C@@H](CCC(N)=O)C(N)=O)[C@@H](C)OP(=O)(O)O` [Peptide 4] (Ac-K(Biotin)AA[Bta][pT]P[2Nal]Q-NH2) was tested, and the IC50 (hPin1) was 20 µM and the “fold decrease of inhibition, prolyl residue at Yaa versus peptide 15” value (hPin1; compared with peptide 15) was 100 fold.

For `CC(=O)N[C@@H](CCCCNC(=O)CCCC[C@@H]1SC[C@@H]2NC(=O)N[C@@H]21)C(=O)N[C@@H](C)C(=O)N[C@@H](C)C(=O)N[C@@H](Cc1ccc(-c2ccccc2)cc1)C(=O)N[C@H](C(=O)N1CCC[C@H]1C(=O)N[C@@H](Cc1csc2ccccc12)C(=O)N[C@@H](CCC(N)=O)C(N)=O)[C@@H](C)OP(=O)(O)O` [Peptide 5] (Ac-K(Biotin)AA[Bip][pT]P[Bta]Q-NH2), the IC50 (hPin1) was 15 µM.

`CC(=O)N[C@@H](CCCCNC(=O)CCCC[C@@H]1SC[C@@H]2NC(=O)N[C@@H]21)C(=O)N[C@@H](C)C(=O)N[C@@H](C)C(=O)N[C@@H](Cc1ccc2ccccc2c1)C(=O)N[C@H](C(=O)N1CCC[C@H]1C(=O)N[C@H](C(=O)N[C@@H](CCC(N)=O)C(N)=O)C(C)(C)C)[C@@H](C)OP(=O)(O)O` [Peptide 7] (Ac-K(Biotin)AA[2Nal][pT]P[Tle]Q-NH2) was tested, and the IC50 (hPin1) was greater than 50 µM.

`CC(=O)N[C@@H](CCCCNC(=O)CCCC[C@@H]1SC[C@@H]2NC(=O)N[C@@H]21)C(=O)N[C@@H](C)C(=O)N[C@@H](C)C(=O)N[C@@H](Cc1ccc2ccccc2c1)C(=O)N[C@H](C(=O)N1CCC[C@H]1C(=O)N[C@@H](CC1CCCCC1)C(=O)N[C@@H](CCC(N)=O)C(N)=O)[C@@H](C)OP(=O)(O)O` [Peptide 8] (Ac-K(Biotin)AA[2Nal][pT]P[Cha]Q-NH2) showed an IC50 (hPin1) greater than 50 µM.

With `CC(=O)N[C@@H](CCCCNC(=O)CCCC[C@@H]1SC[C@@H]2NC(=O)N[C@@H]21)C(=O)N[C@@H](C)C(=O)N[C@@H](C)C(=O)N[C@@H](Cc1cccs1)C(=O)N[C@H](C(=O)N(C)[C@@H](C)C(=O)N[C@@H](Cc1ccc2ccccc2c1)C(=O)N[C@@H](CCC(N)=O)C(N)=O)[C@@H](C)OP(=O)(O)O` [Peptide 10] (Ac-K(Biotin)AA[2Thi][pT][NMeA][2Nal]Q-NH2) the IC50 (hPin1) was 15 µM.

In the case of `CC(=O)N[C@@H](CCCCNC(=O)CCCC[C@@H]1SC[C@@H]2NC(=O)N[C@@H]21)C(=O)N[C@@H](C)C(=O)N[C@@H](C)C(=O)N[C@@H](Cc1ccccc1)C(=O)N[C@H](C(=O)N(C)[C@@H](C)C(=O)N[C@@H](Cc1csc2ccccc12)C(=O)N[C@@H](CCC(N)=O)C(N)=O)[C@@H](C)OP(=O)(O)O` [Peptide 12] (Ac-K(Biotin)AAF[pT][NMeA][Bta]Q-NH2), the IC50 (hPin1) is reported as 20 µM.

“Ac-Lys(Nε-biotinoyl)-Ala-Ala-Xaa-Thr(PO3H2)-Yaa-Zaa-Gln-NH2 with Xaa Bth, Yaa Pro, Zaa Cha [Peptide 3]” gave an IC50 (hPin1) greater than 50 µM.

B1: peptide 12 (peptide)
peptide: Ac-K(Biotin)AAF[pT][NMeA][Bta]Q-NH2
SMILES: CC(=O)N[C@@H](CCCCNC(=O)CCCC[C@@H]1SC[C@@H]2NC(=O)N[C@@H]21)C(=O)N[C@@H](C)C(=O)N[C@@H](C)C(=O)N[C@@H](Cc1ccccc1)C(=O)N[C@H](C(=O)N(C)[C@@H](C)C(=O)N[C@@H](Cc1csc2ccccc12)C(=O)N[C@@H](CCC(N)=O)C(N)=O)[C@@H](C)OP(=O)(O)O
With B1 the “IC50(µM), blockade of the PPIase activity of hPin1, protease free PPIase assay” value (from here on “IC50(µM), blockade … protease free PPIase assay”) (full-length hPin1) was 20 µM.

With Ac-K(Biotin)AA[Bta][pT]P[Cha]Q-NH2 [peptide 3] the “IC50(µM), blockade … protease free PPIase assay” value (full-length hPin1) was greater than 50 µM.

In the case of Ac-K(Biotin)AA[Cha][pT][NMeA][2Nal]Q-NH2 [peptide 11], the “IC50(µM), blockade … protease free PPIase assay” value (full-length hPin1) is reported as 7 µM.

With Ac-K(Biotin)AA[Bip][pT]P[2Nal]Q-NH2 [peptide 6] the “IC50(µM), blockade … protease free PPIase assay” value (full-length hPin1) was 18 µM.

B2: peptide 10 (peptide)
peptide: Ac-K(Biotin)AA[2Thi][pT][NMeA][2Nal]Q-NH2
SMILES: CC(=O)N[C@@H](CCCCNC(=O)CCCC[C@@H]1SC[C@@H]2NC(=O)N[C@@H]21)C(=O)N[C@@H](C)C(=O)N[C@@H](C)C(=O)N[C@@H](Cc1cccs1)C(=O)N[C@H](C(=O)N(C)[C@@H](C)C(=O)N[C@@H](Cc1ccc2ccccc2c1)C(=O)N[C@@H](CCC(N)=O)C(N)=O)[C@@H](C)OP(=O)(O)O
For B2, the “IC50(µM), blockade … protease free PPIase assay” value (full-length hPin1) was 15 µM.

B3: peptide 13 (peptide)
peptide: Ac-K(Biotin)AA[Phe(4-tBu)][pT][Tic][Bta]Q-NH2
SMILES: CC(=O)N[C@@H](CCCCNC(=O)CCCC[C@@H]1SC[C@@H]2NC(=O)N[C@@H]21)C(=O)N[C@@H](C)C(=O)N[C@@H](C)C(=O)N[C@@H](Cc1ccc(C(C)(C)C)cc1)C(=O)N[C@H](C(=O)N1Cc2ccccc2C[C@H]1C(=O)N[C@@H](Cc1csc2ccccc12)C(=O)N[C@@H](CCC(N)=O)C(N)=O)[C@@H](C)OP(=O)(O)O
B3 was tested, and the “IC50(µM), blockade … protease free PPIase assay” value (full-length hPin1) was 8 µM.

Ac-K(Biotin)AA[2Thi][pT]P[Bip]Q-NH2 [peptide 2] was tested, and the “IC50(µM), blockade … protease free PPIase assay” value (full-length hPin1) was 22 µM.

In the case of Ac-K(Biotin)AA[Bip][pT]P[Bta]Q-NH2 [peptide 5], the “IC50(µM), blockade … protease free PPIase assay” value (full-length hPin1) is reported as 15 µM.

For Ac-K(Biotin)AA[Phe(4-tBu)][pT][NMeA][2Nal]Q-NH2 [peptide 9], the “IC50(µM), blockade … protease free PPIase assay” value (full-length hPin1) was 10 µM.

In the case of Ac-K(Biotin)AA[2Nal][pT]P[Tle]Q-NH2 [peptide 7], the “IC50(µM), blockade … protease free PPIase assay” value (full-length hPin1) is reported as greater than 50 µM.

B4: peptide 1 (peptide)
peptide: Ac-K(Biotin)AA[Phe(4-tBu)][pT]P[2Nal]Q-NH2
SMILES: CC(=O)N[C@@H](CCCCNC(=O)CCCC[C@@H]1SC[C@@H]2NC(=O)N[C@@H]21)C(=O)N[C@@H](C)C(=O)N[C@@H](C)C(=O)N[C@@H](Cc1ccc(C(C)(C)C)cc1)C(=O)N[C@H](C(=O)N1CCC[C@H]1C(=O)N[C@@H](Cc1ccc2ccccc2c1)C(=O)N[C@@H](CCC(N)=O)C(N)=O)[C@@H](C)OP(=O)(O)O
B4 was tested, and the “IC50(µM), blockade … protease free PPIase assay” value (full-length hPin1) was 30 µM.

For Ac-K(Biotin)AA[2Nal][pT]P[Cha]Q-NH2 [peptide 8], the “IC50(µM), blockade … protease free PPIase assay” value (full-length hPin1) was greater than 50 µM.

B5: peptide 14 (peptide)
peptide: Ac-K(Biotin)AA[Cha][pT][Tic][2Nal]Q-NH2
SMILES: CC(=O)N[C@@H](CCCCNC(=O)CCCC[C@@H]1SC[C@@H]2NC(=O)N[C@@H]21)C(=O)N[C@@H](C)C(=O)N[C@@H](C)C(=O)N[C@@H](CC1CCCCC1)C(=O)N[C@H](C(=O)N1Cc2ccccc2C[C@H]1C(=O)N[C@@H](Cc1ccc2ccccc2c1)C(=O)N[C@@H](CCC(N)=O)C(N)=O)[C@@H](C)OP(=O)(O)O
For B5, the “IC50(µM), blockade … protease free PPIase assay” value (full-length hPin1) was 25 µM.
